In patent US20230134571A1 (INTERNATIONAL AIDS VACCINE INITIATIVE, published 2023):

Columns and labels:
Assay in all cases: cell-based or functional assay
[1] = target: HIV Env, isolate 20258279_V2 (HIV)
[2] = target: HIV Env, isolate 21203310_G7_C3 (HIV)
[3] = target: HIV Env, isolate CAP323.2.00_B6.45 (HIV)
[4] = target: HIV Env, isolate 3514597 (HIV)
[5] = target: HIV Env, isolate 705010185 (HIV)
[6] = target: HIV Env, isolate 2865_A11.12 (HIV)
[7] = target: HIV Env, isolate Ce703010131_1E2 (HIV)
[8] = target: HIV Env, isolate Ko459_T68_4 (HIV)
[9] = target: HIV Env, isolate CeCAP177_1A3 (HIV)
[10] = target: HIV Env, isolate 3426.v5.c17 (HIV)
[11] = target: HIV Env, isolate 6980.v0.c31 (HIV)
[12] = target: HIV Env, isolate 20104663_E11_D2 (HIV)
[13] = target: HIV Env, isolate CAP136.1.16_E6_1 (HIV)
[14] = target: HIV Env, isolate CT565_C7.48 (HIV)
[15] = target: HIV Env, isolate Ce704810053_2B7 (HIV)
[16] = target: HIV Env, isolate CAP266.2.00_E9_h6 (HIV)
[17] = target: HIV Env, isolate 704010042 (HIV)
[18] = target: HIV Env, isolate CAP304.2.00_F6.6 (HIV)
[19] = target: HIV Env, isolate CT140_140_B6 (HIV)
[20] = target: HIV Env, isolate CeCAP200_B8a (HIV)
[21] = target: HIV Env, isolate ZM233M.PB6 (HIV)
[22] = target: HIV Env, isolate CA240_A5.5 (HIV)
[23] = target: HIV Env, isolate TRP363.2.00_10_3 (HIV)
[24] = target: HIV Env, isolate 1170887.08 (HIV)
[25] = target: HIV Env, isolate 1245045 (HIV)
[26] = target: HIV Env, isolate CT184_D3.15 (HIV)
[27] = target: HIV Env, isolate Ce703010054_2A2 (HIV)
[28] = target: HIV Env, isolate 21197826_V1 (HIV)
[29] = target: HIV Env, isolate 19707346_E8_C6 (HIV)
[30] = target: HIV Env, isolate 19157834_V1 (HIV)
[31] = target: HIV Env, isolate 21283649 (HIV)
[32] = target: HIV Env, isolate ZM197M.PB7 (HIV)
[33] = target: HIV Env, isolate 20286961_C1_H8 (HIV)
[34] = target: HIV Env, isolate CA146_H3_3 (HIV)
[35] = target: HIV Env, isolate ZM106F.PB9 (HIV)
[36] = target: HIV Env, isolate So405_T24_5 (HIV)

B1: ePGDM9 (antibody, V domains shown)
VH: QAQLVQSGPEVRKPGTSVKVSCKNPGNTLTTYDLHWVRQVPGQGLQWMGWISHEGDKKVIVERFKAKVTIDWDRSTNTAYLQLSGLTSEDTAVYYCAKGSKHRLRDYALYDEDGALNWAVDVDYLANLEFWGQGTAVTVSS
VL: DIVLTQSPLSLSVTPGESASISCKSSQSLIHGDRNNYLAWYVQKPGRSPQLLIDLASERASGVPDRFSGSGSRKDFTLKISRVETEDVGTYYCMQGRESPWTFGQGTKVDIK
[1]
  IC50: > 50 µg/mL
  IC80: > 50 µg/mL
[2]
  IC50: 9.94 µg/mL
  IC80: > 50 µg/mL
[3]
  IC50: 0.004 µg/mL
  IC80: 0.016 µg/mL
[4]
  IC50: 0.003 µg/mL
  IC80: 0.011 µg/mL
[5]
  IC50: 0.706 µg/mL
  IC80: 2.15 µg/mL
[6]
  IC50: 0.071 µg/mL
  IC80: 0.258 µg/mL
[7]
  IC50: < 0.0006 µg/mL
  IC80: 0.004 µg/mL
[8]
  IC50: 0.003 µg/mL
  IC80: 0.126 µg/mL
[9]
  IC50: 0.153 µg/mL
  IC80: 1.06 µg/mL
[10]
  IC50: < 0.0006 µg/mL
  IC80: 0.002 µg/mL
[11]
  IC50: < 0.0006 µg/mL
  IC80: 0.006 µg/mL
[12]
  IC50: < 0.0006 µg/mL
  IC80: 0.001 µg/mL
[13]
  IC50: > 50 µg/mL
  IC80: > 50 µg/mL
[14]
  IC50: < 0.0006 µg/mL
  IC80: 0.086 µg/mL
[15]
  IC50: 0.003 µg/mL
  IC80: 0.007 µg/mL
[16]
  IC50: 0.008 µg/mL
  IC80: 0.037 µg/mL
[17]
  IC50: < 0.0006 µg/mL
  IC80: < 0.0006 µg/mL
[18]
  IC50: 0.002 µg/mL
  IC80: 0.013 µg/mL
[19]
  IC50: 0.248 µg/mL
  IC80: 1.83 µg/mL
[20]
  IC50: 0.003 µg/mL
  IC80: 0.022 µg/mL
[21]
  IC50: < 0.0006 µg/mL
  IC80: 0.001 µg/mL
[22]
  IC50: > 50 µg/mL
  IC80: > 50 µg/mL
[23]
  IC50: 1.81 µg/mL
  IC80: > 50 µg/mL
[24]
  IC50: 0.008 µg/mL
  IC80: 0.056 µg/mL
[25]
  IC50: 0.002 µg/mL
  IC80: 0.006 µg/mL
[26]
  IC50: < 0.0006 µg/mL
  IC80: 0.002 µg/mL
[27]
  IC50: 0.005 µg/mL
  IC80: 0.027 µg/mL
[28]
  IC50: 12.7 µg/mL
  IC80: 34.6 µg/mL
[29]
  IC50: 0.005 µg/mL
  IC80: 0.014 µg/mL
[30]
  IC50: 31.7 µg/mL
  IC80: > 50 µg/mL
[31]
  IC50: 1.55 µg/mL
  IC80: > 50 µg/mL
[32]
  IC50: 0.017 µg/mL
  IC80: 0.05 µg/mL
[33]
  IC50: 0.023 µg/mL
  IC80: > 50 µg/mL
[34]
  IC50: > 50 µg/mL
  IC80: > 50 µg/mL
[35]
  IC50: 0.007 µg/mL
  IC80: 0.024 µg/mL
[36]
  IC50: 14.3 µg/mL
  IC80: > 50 µg/mL
